Laboratory results taken from article PMC6249382, “The Maize Sulfite Reductase Is Involved in Cold and Oxidative Stress Responses” (Frontiers in Plant Science, 2018).

Substrate: O=S(O)O
Experiment: steady-state kinetics, Lineweaver-Burk plot
Type: biochemical, Zea mays
Conditions: 400 μM NADPH as electron donor (printed "electron acceptor"); sulfite 2.5-400 μM; 1.0 μg enzyme

B1: ZmSiR (Zea mays) (protein)
chain: MSGAIGGAEVHGFRGAAAQLPRSRVLGRPIRVAPPAAARPGGASAGSIRAVSAPAKKDASEVKRSKVEIIKEKSNFLRYPLNEELVSEAPNINESAVQLIKFHGSYQQTDRDVRGQKNYSFMLRTKNPCGKVPNQLYLAMDTLADEFGIGTLRLTTRQTFQLHGVLKKNLKTVLSTVIKNMGSTLGACGDLNRNVLAPAAPYVKKDILFAQQTAENIAALLTPQSGAYYDLWVDGEKIMSAEEPPEVTKARNDNSHGTNFPDSPEPIYGTQYLPRKFKVAVTAAGDNSVDILTNDIGVVVVSDDAGEPIGFNIYVGGGMGRTHRVETTFPRLADPLGYVPKEDILYAIKAIVVTQRENGRRDDRKYSRMKYMIDRWGIDRFRAEVEKYYGKKFESFRPLPEWQFNSYLGWQEQGDGKLFYGVHVDNGRVGGQAKKTLREIIEKYNLDVSITPNQNLILCGIDQAWREPITTALAQAGLLEPKDVDPLNLTAMACPALPLCPLAQTEAERGILPILKRIRAVFNKVGIKDSESVVVRITGCPNGCARPYMAELGFVGDGPKSYQIWLGGTPNQSTLAESFMDKVKLDDIEKVLEPLFTYWNGTRQEGESFGSFTNRTGFDKLKEVVNKWAESPSAA
Km: 5.32 ± 0.26 µM
